Source: article PMC6039102 (Nature, 2018)
Values joined by “and” are separate entries in the source; they are usually repeats but may differ in a detail not shown here. Identical values can stand only once.

B1: KSHV major capsid protein (MCP) (natural protein)
chain: MEATLEQRPFPYLATEANLLTQIKESAADGLFKSFQLLLGKDAREGSVRFEALLGVYTNVVEFVKFLETALAAACVNTEFKDLRRMIDGKIQFKISMPTIAHGDGRRPNKQRQYIVMKACNKHHIGAEIELAAADIELLFAEKETPLDFTEYAGAIKTITSALQFGMDALERGLVDTVLAVKLRHAPPVFILKTLGDPVYSERGLKKAVKSDMVSMFKAHLIEHSFFLDKAELMTRGKQYVLTMLSDMLAAVCEDTVFKGVSTYTTASGQQVAGVLETTDSVMRRLMNLLGQVESAMSGPAAYASYVVRGANLVTAVSYGRAMRNFEQFMARIVDHPNALPSVEGDKAALADGHDEIQRTRIAASLVKIGDKFVAIESLQRMYNETQFPCPLNRRIQYTYFFPVGLHLPVPRYSTSVSVRGVESPAIQSTETWVVNKNNVPLCFGYQNALKSICHPRMHNPTQSAQALNQAFPDPDGGHGYGLRYEQTPNMNLFRTFHQYYMGKNVAFVPDVAQKALVTTEDLLHPTSHRLLRLEVHPFFDFFVHPCPGARGSYRATHRTMVGNIPQPLAPREFQESRGAQFDAVTNMTHVIDQLTIDVIQETAFDPAYPLFCYVIEAMIHGQEEKFVMNMPLIALVIQTYWVNSGKLAFVNSYHMVRFICTHMGNGSIPKEAHGHYRKILGELIALEQALLKLAGHETVGRTPITHLVSALLDPHLLPPFAYHDVFTDLMQKSSRQPIIKIGDQNYDNPQNRATFINLRGRMEDLVNNLVNIYQTRVNEDHDERHVLDVAPLDENDYNPVLEKLFYYVLMPVCSNGHMCGMGVDYQNVALTLTYNGPVFADVVNAQDDILLHLENGTLKDILQAGDIRPTVDMIRVLCTSFLTCPFVTQAARVITKRDPAQSFATHEYGKDVAQTVLVNGFGAFAVADRSREAAETMFYPVPFNKLYADPLVAATLHPLLANYVTRLPNQRNAVVFNVPSNLMAEYEEWHKSPVAAYAASCQATPGAISAMVSMHQKLSAPSFICQAKHRMHPGFAMTVVRTDEVLAEHILYCSRASTSMFVGLPSVVRREVRSDAVTFEITHEIASLHTALGYSSVIAPAHVAAITTDMGVHCQDLFMIFPGDAYQDRQLHDYIKMKAGVQTGSPGNRMDHVGYTAGVPRCENLPGLSHGQLATCEIIPTPVTSDVAYFQTPSNPRGRAACVVSCDAYSNESAERLLYDHSIPDPAYECRSTNNPWASQRGSLGDVLYNITFRQTALPGMYSPCRQFFHKEDIMRYNRGLYTLVNEYSARLAGAPATSTTDLQYVVVNGTDVFLDQPCHMLQEAYPTLAASHRVMLDEYMSNKQTHAPVHMGQYLIEEVAPMKRLLKLGNKVVY
B2: KSHV smallest capsid protein (SCP) (natural protein)
chain: MSNFKVRDPVIQERLDHDYAHHPLVARMNTLDQGNMSQAEYLVQKRHYLVFLIAHHYYEAYLRRMGGIQRRDHLQTLRDQKPRERADRVSAASAYDAGTFTVPSRPGPASGTTPGGQDSLGVSGSSITTLSSGPHSLSPASDILTTLSSTTETAAPAVADARKPPSGKKK

Legend:
Experiment in all cases: cryo-EM structure
[1] = target: KSHV triplex protein Tri1 (Kaposi's sarcoma-associated herpesvirus (KSHV))
[2] = target: KSHV triplex protein Tri2 (Kaposi's sarcoma-associated herpesvirus (KSHV))
cryo-EM structure = target: the molecule itself
[3] = target: B1

For “KSHV triplex protein Tri2 (natural protein)”, the stoichiometry N [1] was 2 and the stoichiometry N [2] was 2.

With B1 the “stoichiometry N” value (cryo-EM structure) was 5 and 6.

B2: binds [3].
